# ± gives the standard deviation of the averaged measurements.
# Test system: Saccharomyces cerevisiae
# Test: protein stability index of tFT-peptide fusion (C-terminal peptide) (PSI (0-1 scale)); higher = more stable (slower turnover)
# Conditions: genetic background: wild type; temperature: 30 C
# 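Further: PSI is a weighted mean of sequencing reads over stability bins, variants kept only with over 10 reads, mCherry proximal and sfGFP distal, peptide attached via GGGS linker.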
row,Sequence,protein stability index
1,QVCSRKKCDSRK,0.567 ± 0.069
2,QVDITASPDRTT,0.745 ± 0.056
3,QVRPKGDPRARV,0.644 ± 0.1
4,QVVAAGRPWGVF,0.677 ± 0.011
5,QVVEANNPALSF,0.647 ± 0.02
6,QWGGEGWILGGV,0.698 ± 0.031
7,QWGRGGRHVTDI,0.669 ± 0.038
8,QWPCPTLSLRFS,0.632 ± 0.015
9,QWPNPEVLVRST,0.70875 ± 0.00048
10,QYDHGSSPRRFE,0.7005 ± 0.0041
11,QYILGLLLVPLG,0.587 ± 0.032
12,QYSLGLGQVQVI,0.662 ± 0.033
13,RAAATTELAARF,0.697 ± 0.041
14,RAACALSRRGLM,0.926 ± 0.1
15,RAAIPAHPFVSR,0.676 ± 0.027
16,RACLKSRCIAMG,0.604 ± 0.065
17,RACWGKSTGGEW,0.723 ± 0.0083
18,RADLHGFPHRCP,0.76 ± 0.024
19,RAGGSANVLAGE,0.6926 ± 0.0016
20,RAKNRFKRQGEN,0.667 ± 0.023
21,RAPFEGLRCRTG,0.66 ± 0.033
22,RAPPPATLPPLQ,0.661 ± 0.086
23,RARARSVLGRRD,0.672 ± 0.0091

row,Sequence,protein stability index
1,RAREFRSRNIGD,0.74 ± 0.0058
2,RASPVSSFSPPS,0.679 ± 0.041
3,RATMFFLFPMFP,0.622 ± 0.024
4,RAVESPDKSSCE,0.664 ± 0.11
5,RAVPLLPRVLFW,0.6819 ± 0.0047
6,RCACLSCSFLLQ,0.679 ± 0.017
7,RCALATTNHPRS,0.718 ± 0.056
8,RCHIPGRIVKTR,0.628 ± 0.046
9,RCKYLPSSRGMI,0.675 ± 0.011
10,RCLSVLGLFVGW,0.634 ± 0.033
11,RCNFHILEIRKY,0.667 ± 0.0057
12,RCRGSSWLLLCA,0.518 ± 0.016
13,RCRRTTFIELKL,0.595 ± 0.048
14,RCSYIGSAGSFF,0.732 ± 0.024
15,RCTLPLSPSCSR,0.6604 ± 0.0037
16,RCVLWSVLSTQV,0.672 ± 0.042
17,RDECLRVLAPLR,0.726 ± 0.024
18,RDFCLGFANTVC,0.642 ± 0.028
19,RDKAVAGKKGGS,0.682 ± 0.017
20,RDKIRMIDSYLT,0.696 ± 0.025
21,RDLLPPLYLPSH,0.711 ± 0.039
22,RDPWESLDRCYP,0.698 ± 0.034
23,RDTAPPPPPALL,0.788 ± 0.08

row,Sequence,protein stability index
1,REGSIISYPASG,0.6989 ± 0.0019
2,RENGKIIKKRKK,0.694 ± 0.026
3,RERVQYICYERR,0.695 ± 0.086
4,RERVVSVKLGGG,0.688 ± 0.018
5,RETSRNCGKVST,0.745 ± 0.043
6,REWGWGALVMWG,0.638 ± 0.042
7,RFGGSGGLPGGW,0.665 ± 0.031
8,RFGLRVLGGACR,0.591 ± 0.071
9,RFGSGKCLALRG,0.689 ± 0.066
10,RFGSLKWGRGCI,0.6759 ± 0.0044
11,RFKCVKPPLPRR,0.715 ± 0.03
12,RFLDVSRYAGGV,0.705 ± 0.025
13,RFLISYFYKVIR,0.56 ± 0.034
14,RFQWAFMSWSEP,0.823 ± 0.064
15,RFRCGLPMQERT,0.689 ± 0.064
16,RFRGYWSWGMTL,0.777 ± 0.13
17,RFVAFDFLGISL,0.736 ± 0.2
18,RFVHCRRKVAKR,0.667 ± 0.047
19,RFWDMGGYAGGL,0.733 ± 0.079
20,RGALQQLREHTS,0.687 ± 0.055
21,RGASLFPTPLAF,0.742 ± 0.043
22,RGCCSVAFRCVV,0.712 ± 0.066
23,RGEHKDYFYVMT,0.651 ± 0.0076

row,Sequence,protein stability index
1,RGEMGLAPTGGD,0.651 ± 0.044
2,RGFCGGLWRPGV,0.769 ± 0.013
3,RGGDIEVPSDQN,0.705 ± 0.019
4,RGGGCNGVSVEG,0.6899 ± 0.0027
5,RGGGGGGSRTGA,0.706 ± 0.026
6,RGGGGGVECRVG,0.655 ± 0.075
7,RGGGGPGWGSRG,0.684 ± 0.025
8,RGGGRRAWVWGG,0.675 ± 0.036
9,RGGGVWGKEDSQ,0.717 ± 0.052
10,RGGLDQVHKGFR,0.711 ± 0.086
11,RGGSGGRKCLGV,0.687 ± 0.0094
12,RGGSGGSCMRYV,0.678 ± 0.066
13,RGGTGGWKGVWV,0.71 ± 0.022
14,RGISAAAAPGEG,0.706 ± 0.024
15,RGKEREGGRQER,0.746 ± 0.045
16,RGLIVGMGAGMV,0.671 ± 0.015
17,RGLNIPRLSCRY,0.748 ± 0.008
18,RGPKDNGGSETS,0.713 ± 0.078
19,RGPPCPFPVPLP,0.74 ± 0.033
20,RGPRWETVSSCM,0.682 ± 0.027
21,RGRASVIWGGPG,0.659 ± 0.086
22,RGRDTETFSDNS,0.6901 ± 0.0054
23,RGRLRGPEPKMT,0.726 ± 0.078

row,Sequence,protein stability index
1,RGRRGAGRKGGP,0.751 ± 0.15
2,RGRWLIVHCPTQ,0.605 ± 0.034
3,RGSGSGTRCRRS,0.682 ± 0.11
4,RGTGGGSESGVK,0.661 ± 0.063
5,RGTWAVGGGRGG,0.671 ± 0.065
6,RGVALWALYGAG,0.76502 ± 0.00052
7,RGVSRQVRTVDP,0.679 ± 0.03
8,RGVSVRLSLAYR,0.6216 ± 0.0048
9,RGWARGRQGCGG,0.726 ± 0.011
10,RGWWVLWGGGWG,0.551 ± 0.025
11,RHARAARDSPRR,0.705 ± 0.081
12,RHGFTNINGIKH,0.714 ± 0.012
13,RHGVQMAGLKRR,0.679 ± 0.019
14,RHLMNYEKRNAN,0.723 ± 0.053
15,RHNKVSPNARYN,0.661 ± 0.027
16,RHPSVLPLSILL,0.653 ± 0.054
17,RHSPGPLLTPAP,0.712 ± 0.045
18,RHTPPTTPLSLL,0.701 ± 0.096
19,RICIGSLHGASI,0.576 ± 0.019
20,RICPEVSSVLIR,0.682 ± 0.035
21,RIFFTCDSFLCV,0.611 ± 0.04
22,RIGICSTNTSLQ,0.722 ± 0.067
23,RIGYGEGWKKGG,0.695 ± 0.067

row,Sequence,protein stability index
1,RIINRIDNKIEK,0.672 ± 0.0039
2,RIKKTRVVRQKM,0.547 ± 0.04
3,RILLSHGNSRSI,0.699 ± 0.013
4,RINKRKKKKDKG,0.6136 ± 0.00074
5,RIQIKIKRTKNK,0.638 ± 0.11
6,RIRRERRIGLKV,0.559 ± 0.0092
7,RISGDVNCLSPR,0.718 ± 0.066
8,RISGVEKPLLRV,0.663 ± 0.015
9,RITRVRNKEQSK,0.692 ± 0.016
10,RIVMSSDHTFQG,0.635 ± 0.0072
11,RKAKHWKNKIQK,0.737 ± 0.048
12,RKCPRVCVFQSS,0.557 ± 0.017
13,RKDEKEMVRKTK,0.682 ± 0.061
14,RKGRETGTKERE,0.671 ± 0.036
15,RKHIANPTDQND,0.673 ± 0.019
16,RKHLIPRPTSNP,0.71 ± 0.011
17,RKICINIEKKGE,0.682 ± 0.018
18,RKIRIDKQRKVK,0.716 ± 0.033
19,RKKKKKLKKKTE,0.66 ± 0.082
20,RKKRNKTQTSKT,0.6936 ± 0.00054
21,RKKRYRRRKIKK,0.773 ± 0.025
22,RKLFLKNELGSK,0.7 ± 0.14
23,RKLKNKTKREII,0.653 ± 0.0068

row,Sequence,protein stability index
1,RKMRNGRKRKKK,0.62 ± 0.025
2,RKNNTVIKQIKR,0.656 ± 0.054
3,RKRKIKQYITTT,0.725 ± 0.043
4,RKVGRVGGGRLE,0.637 ± 0.018
5,RKVHNVETQITA,0.648 ± 0.018
6,RKVRRTRNSEGE,0.726 ± 0.011
7,RLAAPPRYPPLP,0.731 ± 0.12
8,RLATRPILDLPP,0.519 ± 0.026
9,RLAVLKGWTTFV,0.567 ± 0.039
10,RLAYSSGKAFRV,0.702 ± 0.012
11,RLCPGAALAFRG,0.718 ± 0.12
12,RLCRQPPSLLPP,0.6958 ± 0.0053
13,RLEFSFHPFFLS,0.658 ± 0.02
14,RLFAPSHSSSLP,0.733 ± 0.055
15,RLFLGSIGTLTS,0.673 ± 0.046
16,RLFLSFVDRRSL,0.629 ± 0.06
17,RLFSPFTLPPFF,0.739 ± 0.063
18,RLFSYLSTLSFI,0.727 ± 0.053
19,RLGGAACLRSEC,0.627 ± 0.04
20,RLGLVITKLGVY,0.541 ± 0.0081
21,RLGNVYSTSFQC,0.618 ± 0.012
22,RLGRGRRGMRWL,0.659 ± 0.025
